Data set [1] can be described thus: SEC; analytical SEC, Superdex 75 Increase 10/300 GL; 100 μL of protein solution (1.0 mg·mL^−1); 20 mM Tris–HCl (pH 8.0), 150 mM NaCl; masses from a calibration standard; self-association, dimer to monomers. In general terms: Size exclusion chromatography separates by hydrodynamic size, large species first.
Data set [2] addresses TTE^Δ110, TTE0866 with the N-terminal 110 residues truncated (Caldanaerobacter subterraneus subsp. tengcongensis). The description is as above.

On to “TTE^Δ110, TTE0866 with the N-terminal 110 residues truncated”, for which the “percent dimer (SEC peak area)” value in data set [1] was “the dimer‐to‐monomer percentage of TTE^Δ110 was 20% and 80%”.
By stoichiometry N is commonly meant a count of units in the complex or per binding partner. Substance “TTE^Δ110, TTE0866 with the N-terminal 110 residues truncated (domain or fragment)” showed a stoichiometry N in data set [2] of 2.

These data come from article PMC9527590, “Functional analysis of the N‐terminal region of acetylxylan esterase from Caldanaerobacter subterraneus subsp. tengcongensis” (FEBS Open Bio, 2022).
